Experimental data from the supplement of paper PMC7125110.
± gives the standard error. Variants at the floor of the assay were thinned out.

B1: glmS ribozyme (parent)
chain: AUAAAAGCGCCAGAACUACAGAAAUGUAGUUGACGAGGAGGAGGUUUAUCGAAUUUUCGGCGGAUGCCUCCAAA

Experiments:
Conditions in all cases: with glucosamine-6-phosphate
[1] = variants of: B1; test: self-cleavage kobs at 40 uM GlcN6P; higher = faster cleavage; RNA array
In short: (§1)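 Weighted Michaelis–Menten fits across concentrations supplied kcat and KM, based on kobs from one- or two-exponential decay fits to normalised per-tile medians. The data came from barcoded ribozyme variants transcribed in situ by E. coli RNA polymerase on sequenced MiSeq chips and tracked at 37 °C by a hybridised Cy3 probe. Glucosamine-6-phosphate (40 μM to 10 mM) in HEPES/KCl/Mg(OAc)2 buffer was flowed in.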

[2] = variants of: B1; test: self-cleavage kobs at 2500 uM GlcN6P; higher = faster cleavage; RNA array
In short: as §1

[3] = variants of: B1; test: self-cleavage kobs at 10000 uM GlcN6P; higher = faster cleavage; RNA array
In short: as §1

[4] = variants of: B1; test: self-cleavage kobs at 640 uM GlcN6P; higher = faster cleavage; RNA array
In short: as §1

[5] = variants of: B1; test: self-cleavage kobs at 160 uM GlcN6P; higher = faster cleavage; RNA array
In short: as §1

Variant	self-cleavage kobs at 40 uM GlcN6P [1]	self-cleavage kobs at 2500 uM GlcN6P [2]	self-cleavage kobs at 10000 uM GlcN6P [3]	self-cleavage kobs at 640 uM GlcN6P [4]	self-cleavage kobs at 160 uM GlcN6P [5]
C10G G32U A36C G40U G63U	< 1e-05 s⁻¹	< 1e-05 s⁻¹	< 1e-05 s⁻¹	–	–
G29A A39G	0.000267 ± 3.9e-05 s⁻¹	0.00297 ± 0.00077 s⁻¹	0.0102 ± 0.0018 s⁻¹	0.00148 ± 0.00051 s⁻¹	–
G59U C61A	< 1e-05 s⁻¹	–	< 1e-05 s⁻¹	< 1e-05 s⁻¹	< 1e-05 s⁻¹
G44A C71A	< 1e-05 s⁻¹	< 1e-05 s⁻¹	–	< 1e-05 s⁻¹	< 1e-05 s⁻¹
A15C G32U G60U	< 1e-05 s⁻¹	–	< 1e-05 s⁻¹	–	–
A53U C71A	0.000169 ± 1.6e-05 s⁻¹	–	0.00487 ± 0.00058 s⁻¹	0.00145 ± 0.00029 s⁻¹	0.000145 ± 3.8e-05 s⁻¹
C10U G43U U57G	< 1e-05 s⁻¹	–	< 1e-05 s⁻¹	–	–
A6G C71G	< 1e-05 s⁻¹	< 1e-05 s⁻¹	–	< 1e-05 s⁻¹	< 1e-05 s⁻¹
G38A G41A G63C	< 1e-05 s⁻¹	–	–	–	–
A14G A53U C71G	0.000153 ± 2.4e-05 s⁻¹	0.00038 ± 0.0001 s⁻¹	–	0.000741 ± 0.00014 s⁻¹	–
A15U G32U A33U	< 1e-05 s⁻¹	–	–	–	–
G7A G37C A42U	< 1e-05 s⁻¹	< 1e-05 s⁻¹	< 1e-05 s⁻¹	< 1e-05 s⁻¹	–
U49C C58U	< 1e-05 s⁻¹	< 1e-05 s⁻¹	< 1e-05 s⁻¹	< 1e-05 s⁻¹	< 1e-05 s⁻¹
U46A A48U U57A G60U C67U C68A	< 1e-05 s⁻¹	< 1e-05 s⁻¹	–	–	–
G7C G41U	< 1e-05 s⁻¹	< 1e-05 s⁻¹	< 1e-05 s⁻¹	–	< 1e-05 s⁻¹
C8G U31A G41C	< 1e-05 s⁻¹	–	–	–	–
G38U C50A C67G	8.67e-05 ± 3.1e-05 s⁻¹	–	0.000115 ± 3.2e-05 s⁻¹	–	–
G29A G37C U69C	< 1e-05 s⁻¹	–	< 1e-05 s⁻¹	–	–
G7U U49A	< 1e-05 s⁻¹	< 1e-05 s⁻¹	< 1e-05 s⁻¹	< 1e-05 s⁻¹	< 1e-05 s⁻¹
G38U G41C G43A	< 1e-05 s⁻¹	–	–	–	–
A6G A15C A64C	< 1e-05 s⁻¹	< 1e-05 s⁻¹	–	–	–
U49A C67A U69C	< 1e-05 s⁻¹	–	–	–	–
G7C G44C A64U	< 1e-05 s⁻¹	–	< 1e-05 s⁻¹	–	–
C8G G32U C34A	< 1e-05 s⁻¹	–	–	–	–

Variant	self-cleavage kobs at 40 uM GlcN6P [1]	self-cleavage kobs at 2500 uM GlcN6P [2]	self-cleavage kobs at 10000 uM GlcN6P [3]	self-cleavage kobs at 640 uM GlcN6P [4]	self-cleavage kobs at 160 uM GlcN6P [5]
A42C U49A	< 1e-05 s⁻¹	< 1e-05 s⁻¹	–	< 1e-05 s⁻¹	< 1e-05 s⁻¹
C34U A52G	< 1e-05 s⁻¹	–	< 1e-05 s⁻¹	–	< 1e-05 s⁻¹
G37U G40A G59U	< 1e-05 s⁻¹	< 1e-05 s⁻¹	< 1e-05 s⁻¹	–	–
A33U A64C	< 1e-05 s⁻¹	–	< 1e-05 s⁻¹	< 1e-05 s⁻¹	< 1e-05 s⁻¹
A6U G13C C16A U45G	< 1e-05 s⁻¹	–	–	–	–
A36G G41C G43C A48G	< 1e-05 s⁻¹	< 1e-05 s⁻¹	< 1e-05 s⁻¹	–	–
C50G C71A	0.00184 ± 0.00076 s⁻¹	0.000153 ± 1.4e-05 s⁻¹	–	0.000215 ± 2e-05 s⁻¹	0.000128 ± 1.3e-05 s⁻¹
G13U A36U	< 1e-05 s⁻¹	< 1e-05 s⁻¹	< 1e-05 s⁻¹	< 1e-05 s⁻¹	< 1e-05 s⁻¹
A33C G40C G44U C50U	< 1e-05 s⁻¹	< 1e-05 s⁻¹	–	–	–
A53U G59U	< 1e-05 s⁻¹	–	4.13e-05 ± 7.7e-06 s⁻¹	–	–
A6C U46A U49A	< 1e-05 s⁻¹	< 1e-05 s⁻¹	–	< 1e-05 s⁻¹	< 1e-05 s⁻¹
C8U A14U G29C U46A G51A	< 1e-05 s⁻¹	–	< 1e-05 s⁻¹	–	–
A15G U25A C50G C70U	6.43e-05 ± 1.3e-05 s⁻¹	–	6.03e-05 ± 1.6e-05 s⁻¹	–	–
C16U G38C A48G C50U U55G	< 1e-05 s⁻¹	–	< 1e-05 s⁻¹	–	–
U45A A48C C58U	< 1e-05 s⁻¹	–	< 1e-05 s⁻¹	–	–
C8U G9A C50G C67U	6.37e-05 ± 1.7e-05 s⁻¹	0.000169 ± 4.6e-05 s⁻¹	6.88e-05 ± 1.6e-05 s⁻¹	–	–
A6G A33U	< 1e-05 s⁻¹	< 1e-05 s⁻¹	–	< 1e-05 s⁻¹	< 1e-05 s⁻¹
G32A A39C G44U	< 1e-05 s⁻¹	–	< 1e-05 s⁻¹	–	–
G40C G41C G63U	< 1e-05 s⁻¹	–	–	–	–
G62U C70A	< 1e-05 s⁻¹	–	–	–	–
C10U G38A G66U	< 1e-05 s⁻¹	–	–	–	–
G35U G43U U54A	< 1e-05 s⁻¹	–	< 1e-05 s⁻¹	–	–
U31G U55A	0.000446 ± 7.1e-05 s⁻¹	0.00465 ± 0.0011 s⁻¹	0.0118 ± 0.0023 s⁻¹	0.00221 ± 0.00041 s⁻¹	0.00128 ± 0.00045 s⁻¹
G44C G62A	< 1e-05 s⁻¹	< 1e-05 s⁻¹	< 1e-05 s⁻¹	< 1e-05 s⁻¹	< 1e-05 s⁻¹

Variant	self-cleavage kobs at 40 uM GlcN6P [1]	self-cleavage kobs at 2500 uM GlcN6P [2]	self-cleavage kobs at 10000 uM GlcN6P [3]	self-cleavage kobs at 640 uM GlcN6P [4]	self-cleavage kobs at 160 uM GlcN6P [5]
U31G U45G C61A	< 1e-05 s⁻¹	< 1e-05 s⁻¹	< 1e-05 s⁻¹	–	–
G7C G32U C34A G35C	< 1e-05 s⁻¹	–	–	–	–
A48U C61U	< 1e-05 s⁻¹	–	–	< 1e-05 s⁻¹	–
A14G G44U U49C	< 1e-05 s⁻¹	–	–	–	–
C8A C10G	< 1e-05 s⁻¹	< 1e-05 s⁻¹	< 1e-05 s⁻¹	< 1e-05 s⁻¹	< 1e-05 s⁻¹
G37A G51A U55G	< 1e-05 s⁻¹	–	< 1e-05 s⁻¹	–	–
C50U C61U	< 1e-05 s⁻¹	< 1e-05 s⁻¹	< 1e-05 s⁻¹	< 1e-05 s⁻¹	–
G66A C70A	8.27e-05 ± 1.4e-05 s⁻¹	0.00036 ± 8.5e-05 s⁻¹	0.000947 ± 0.00015 s⁻¹	0.000708 ± 0.00013 s⁻¹	7.28e-05 ± 2.8e-05 s⁻¹
C10U A15C G43U C50U U57G G59A	< 1e-05 s⁻¹	< 1e-05 s⁻¹	< 1e-05 s⁻¹	< 1e-05 s⁻¹	< 1e-05 s⁻¹
G7A A48C	< 1e-05 s⁻¹	–	< 1e-05 s⁻¹	< 1e-05 s⁻¹	< 1e-05 s⁻¹
G9C G29U U69A	< 1e-05 s⁻¹	< 1e-05 s⁻¹	< 1e-05 s⁻¹	< 1e-05 s⁻¹	< 1e-05 s⁻¹
A33G U56A	< 1e-05 s⁻¹	–	< 1e-05 s⁻¹	< 1e-05 s⁻¹	< 1e-05 s⁻¹
A39U U56A	0.000199 ± 3.1e-05 s⁻¹	0.00215 ± 0.00066 s⁻¹	0.00963 ± 0.00089 s⁻¹	–	0.000238 ± 8.2e-05 s⁻¹
A6G G32U G37C A64U C68G C70G	< 1e-05 s⁻¹	–	–	–	–
G35C U57A	< 1e-05 s⁻¹	< 1e-05 s⁻¹	–	< 1e-05 s⁻¹	< 1e-05 s⁻¹
G35U G62A	< 1e-05 s⁻¹	< 1e-05 s⁻¹	< 1e-05 s⁻¹	< 1e-05 s⁻¹	< 1e-05 s⁻¹
G37C A42U C70A	< 1e-05 s⁻¹	–	–	–	–
G51U A53C	< 1e-05 s⁻¹	–	–	< 1e-05 s⁻¹	< 1e-05 s⁻¹
A6G G51A	< 1e-05 s⁻¹	< 1e-05 s⁻¹	< 1e-05 s⁻¹	< 1e-05 s⁻¹	< 1e-05 s⁻¹
G35C G40U A64U	< 1e-05 s⁻¹	< 1e-05 s⁻¹	–	–	< 1e-05 s⁻¹
C11U U45G C50A	< 1e-05 s⁻¹	–	–	–	–
A6U A33G G41A A64U	< 1e-05 s⁻¹	< 1e-05 s⁻¹	–	< 1e-05 s⁻¹	< 1e-05 s⁻¹
G44C G60C	< 1e-05 s⁻¹	–	< 1e-05 s⁻¹	< 1e-05 s⁻¹	< 1e-05 s⁻¹
A48C U69G	< 1e-05 s⁻¹	–	< 1e-05 s⁻¹	–	< 1e-05 s⁻¹

Variant	self-cleavage kobs at 40 uM GlcN6P [1]	self-cleavage kobs at 2500 uM GlcN6P [2]	self-cleavage kobs at 10000 uM GlcN6P [3]	self-cleavage kobs at 640 uM GlcN6P [4]	self-cleavage kobs at 160 uM GlcN6P [5]
U45C U55C	5.77e-05 ± 1.3e-05 s⁻¹	0.00199 ± 0.00054 s⁻¹	0.00272 ± 0.00037 s⁻¹	–	–
C8A G13U G41C U55C U65A U69G	< 1e-05 s⁻¹	–	–	–	–
A33C G51A G66A C70G	< 1e-05 s⁻¹	–	–	–	–
C8A U30G	< 1e-05 s⁻¹	< 1e-05 s⁻¹	< 1e-05 s⁻¹	< 1e-05 s⁻¹	–
G29U U30A U31G A53U	< 1e-05 s⁻¹	–	–	7.01e-05 ± 2.6e-05 s⁻¹	–
G60U A64U	< 1e-05 s⁻¹	< 1e-05 s⁻¹	< 1e-05 s⁻¹	–	< 1e-05 s⁻¹
A14G G44U A64U	< 1e-05 s⁻¹	< 1e-05 s⁻¹	–	< 1e-05 s⁻¹	–
C34A G40C U46C	< 1e-05 s⁻¹	–	–	–	–
G13U G44U G51C	< 1e-05 s⁻¹	–	–	–	–
C11U C34G G41A U47G	< 1e-05 s⁻¹	< 1e-05 s⁻¹	< 1e-05 s⁻¹	< 1e-05 s⁻¹	–
C16U A33U G38A G40A	< 1e-05 s⁻¹	–	< 1e-05 s⁻¹	–	–
A15U A33U C61G	< 1e-05 s⁻¹	–	–	–	–
C34G G51C	< 1e-05 s⁻¹	–	< 1e-05 s⁻¹	< 1e-05 s⁻¹	–
U49C G59C	< 1e-05 s⁻¹	< 1e-05 s⁻¹	< 1e-05 s⁻¹	–	–
G7C A48U	< 1e-05 s⁻¹	< 1e-05 s⁻¹	< 1e-05 s⁻¹	–	< 1e-05 s⁻¹
G29U A33U G35A U69A	0.000163 ± 6.6e-05 s⁻¹	–	6.21e-05 ± 3e-05 s⁻¹	–	–
C10U U45A G51U C67A	< 1e-05 s⁻¹	–	–	–	–
C11A C34G	< 1e-05 s⁻¹	–	< 1e-05 s⁻¹	< 1e-05 s⁻¹	< 1e-05 s⁻¹
G51C G60U A64U	< 1e-05 s⁻¹	–	–	–	–
C11G G43U A48U C61G A64G	< 1e-05 s⁻¹	< 1e-05 s⁻¹	< 1e-05 s⁻¹	< 1e-05 s⁻¹	–
G9A C50A U56C C67A	< 1e-05 s⁻¹	< 1e-05 s⁻¹	–	< 1e-05 s⁻¹	–
